Patent publication US20160326264A1 (SORRENTO THERAPEUTICS, published 2016)
Substitutions are numbered along the chain they refer to. Several values for one entry are separate records, joined by “and”; a condition that tells them apart may be missing. Equal values may be shown once. One block for each binder: values may come before it.

What was measured:
[1] = target: T1, endogenous human PSMA (prostate-specific membrane antigen) expressed on LNCaP human prostate cancer cells (human, UniProt Q04609 1-750); assay: cell-based or functional assay
[2] = target: T1, endogenous human PSMA …; assay: flow cytometry on LNCaP cells
Method: PSMA expressing LNCaP cells were harvested with enzyme-free Cell Dissociation Buffer (GIBCO) and transferred to V-Bottom 96 well-plates (50,000 cells/well). Cells were incubated on ice for 45 min with serial dilutions of anti-PSMA antibodies PSGB11, PSGB12, PSGC12, PSGD4, PSGD6 and PSA11 in FACS buffer (PBS+ 2% FBS)+NaN₃. […] After 1 wash in FACS buffer, a 1:1000 dilution of Phycoerythrin conjugated anti-Human IgG (γ-chain specific) was added and incubated for 30 min Following a final wash, fluorescence intensity was measured on an Intellicyt High Throughput Flow Cytometer (HTFC).
Data were analyzed using Graphpad Prism software and non-linear regression fit. Data points are shown as the median fluorescence intensity (MFI) of positively labeled cells +/−Standard Error. EC₅₀ values are reported as the concentration of antibody to achieve 50% of maximal PSMA antibodies binding to PSMA expressing cells.

[3] = target: T2, recombinant human PSMA/His (human, UniProt Q04609 44-750); assay: BLI (Octet), antibody amine-coupled to AR2G sensor, PSMA/His in solution, 1:1 model; FIG. 4, second antibody (PSGB11; printed as PSA11)
T2 construct: not shown: His tag
Method: (§1) Specifically, an amine Reactive Second-Generation (AR2G) sensor was coated with antibody (15 ug/ml in acetic buffer, pH5.0) using Sulfo-N-hydroxysuccinimide/N-Ethyl-N′-(3-dimethylaminopropyl)carbodiimide hydrochloride (Sulfo-NHS/EDC) coupling methodology. The sensors were quenched with 1M pH 8.5 ethanolamine Data was collected by moving sensors to serially diluted recombinant human PSMA/His (in PBS buffer) wells, then the data was dissociated by transferring the sensors to PBS wells. A 1:1 binding model was used to fit the data.

[4] = target: T2, recombinant human PSMA/His; assay: Octet biolayer interferometry, antibody amine-coupled to AR2G sensor, recombinant human PSMA/His in solution at 2.15 to 68.8 nM, global 1:1 fit (same value in all 6 rows)
Method: as §1

[5] = target: T2, recombinant human PSMA/His; assay: Octet biolayer interferometry, antibody amine-coupled to AR2G sensor, recombinant human PSMA/His in solution at 2.15 to 68.8 nM, global 1:1 fit; column headed kdis(1/s) (same value in all 6 rows)
Method: as §1

[6] = target: T2, recombinant human PSMA/His; assay: BLI (Octet), antibody amine-coupled to AR2G sensor, PSMA/His in solution, 1:1 model; FIG. 3, antibody PSA11
Method: as §1

[7] = target: T2, recombinant human PSMA/His; assay: Octet biolayer interferometry, antibody amine-coupled to AR2G sensor, recombinant human PSMA/His in solution at 0.75 to 48.1 nM, global 1:1 fit (same value in all 7 rows)
Method: as §1

[8] = target: T2, recombinant human PSMA/His; assay: Octet biolayer interferometry, antibody amine-coupled to AR2G sensor, recombinant human PSMA/His in solution at 0.75 to 48.1 nM, global 1:1 fit; column headed kdis(1/s) (same value in all 7 rows)
Method: as §1

T2 sequence (Q04609 44-750 limits assumed): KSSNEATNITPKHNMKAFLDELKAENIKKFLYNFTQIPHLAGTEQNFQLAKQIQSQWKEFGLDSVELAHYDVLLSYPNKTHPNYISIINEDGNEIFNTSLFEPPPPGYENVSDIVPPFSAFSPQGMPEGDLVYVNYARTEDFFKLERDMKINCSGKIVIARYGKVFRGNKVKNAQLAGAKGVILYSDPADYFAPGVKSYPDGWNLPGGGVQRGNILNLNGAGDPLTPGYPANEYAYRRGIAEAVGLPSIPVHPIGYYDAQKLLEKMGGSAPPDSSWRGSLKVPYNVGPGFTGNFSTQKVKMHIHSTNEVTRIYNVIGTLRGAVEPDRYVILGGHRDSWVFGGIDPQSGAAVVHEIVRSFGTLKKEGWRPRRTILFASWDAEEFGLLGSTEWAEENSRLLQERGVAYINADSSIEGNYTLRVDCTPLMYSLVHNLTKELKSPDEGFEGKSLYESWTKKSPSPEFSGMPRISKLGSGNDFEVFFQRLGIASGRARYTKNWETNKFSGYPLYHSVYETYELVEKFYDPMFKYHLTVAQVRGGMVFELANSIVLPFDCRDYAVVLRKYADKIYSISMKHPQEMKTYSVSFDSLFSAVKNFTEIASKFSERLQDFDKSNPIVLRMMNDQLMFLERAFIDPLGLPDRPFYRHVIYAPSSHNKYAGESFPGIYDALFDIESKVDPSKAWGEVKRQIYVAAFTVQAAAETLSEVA
T1 sequence (Q04609 whole entry): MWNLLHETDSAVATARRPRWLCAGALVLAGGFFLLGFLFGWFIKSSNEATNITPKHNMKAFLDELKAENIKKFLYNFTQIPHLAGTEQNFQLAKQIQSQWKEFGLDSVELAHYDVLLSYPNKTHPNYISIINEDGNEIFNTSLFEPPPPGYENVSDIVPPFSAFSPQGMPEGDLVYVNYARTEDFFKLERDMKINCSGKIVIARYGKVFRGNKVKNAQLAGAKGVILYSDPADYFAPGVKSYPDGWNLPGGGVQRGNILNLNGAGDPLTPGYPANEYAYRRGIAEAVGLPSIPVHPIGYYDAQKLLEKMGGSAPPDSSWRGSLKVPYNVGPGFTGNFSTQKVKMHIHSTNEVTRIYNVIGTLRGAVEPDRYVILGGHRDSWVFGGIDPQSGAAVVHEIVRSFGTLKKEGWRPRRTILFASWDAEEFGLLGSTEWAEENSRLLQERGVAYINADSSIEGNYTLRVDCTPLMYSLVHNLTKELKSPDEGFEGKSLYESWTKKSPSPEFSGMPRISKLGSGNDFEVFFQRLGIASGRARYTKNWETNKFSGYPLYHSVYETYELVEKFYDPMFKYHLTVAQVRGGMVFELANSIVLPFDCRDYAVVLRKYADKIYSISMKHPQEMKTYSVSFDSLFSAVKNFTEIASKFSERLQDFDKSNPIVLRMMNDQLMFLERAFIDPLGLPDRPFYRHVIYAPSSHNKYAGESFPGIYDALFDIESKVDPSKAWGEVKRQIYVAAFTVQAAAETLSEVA

B1: anti-PSMA antibody PSGD6 (antibody, V domains shown)
VH: QVQLVQSGGGLVQPGGSLRLSCAASGFTFSSYWMSWVRQAPGKGLEWVANIKQDGSEKYYVDSVKGRFTISRDNAKNSLYLQMNSLRAEDTAVYYCARVWDYYYDSSGDAFDIWGQGTMVTVSS
VL: DIVMTQSPSSVSASVGDRVTITCRASQAISSWLAWYQQKPGKAPKLLIYAASSLQSGVPSRFSGSGSGTDFTLTISSLQPEDFATYYCQQAYSFPVTFGPGTKVDIK
notes: Fully human IgG
Cell killing, 2-hours-wash method (IC50, nM); antibody pre-complexed with Protein G-MMAF, LNCaP cells, Cell Titer Glo [1]: 1.13 nM | Cell killing, No wash method (IC50, nM); antibody pre-complexed with Protein G-MMAF, LNCaP cells, Cell Titer Glo [1]: 0.04 nM | EC50 [2]: 1.92 nM

B3: anti-PSMA antibody PSGC8 (antibody, V domains shown)
VH: B1 VH
VL: AIRMTQSPSSVSASVGDRVTITCRASQGISSWLAWYQQKPGKAPKLLIYAASSLQSGVPSRFSGSGSGTDFTLTISSLKPEDFATYYCQQANSFPRALTFGGGTKVEIK
notes: Fully human IgG
EC50 [2]: 3.84 nM

B4: anti-PSMA antibody PSGB11 (antibody, V domains shown)
VH: B1 VH
VL: EIVLTQSPSTLSASVGDRVTITCRASQSISSWLAWYQQKPGKAPRLLIYAASILQRGVPSRFSGSGSETDFTLTISSLQPEDLATYYCQETYSNLFTFGPGTKVDIK
notes: Fully human IgG
Cell killing, 2-hours-wash method (IC50, nM); antibody pre-complexed with Protein G-MMAF, LNCaP cells, Cell Titer Glo [1]: 1.6 nM | Cell killing, No wash method (IC50, nM); antibody pre-complexed with Protein G-MMAF, LNCaP cells, Cell Titer Glo [1]: 0.04 nM | EC50 [2]: 1.98 nM and 1.83 nM | Kd [3]: ~0.68 nM | Kd [4]: 0.677 nM | kon [4]: 97000 M⁻¹ s⁻¹ | koff [5]: 6.57e-05 s⁻¹

B5: anti-PSMA antibody PSGD3 (antibody, V domains shown)
VH: B1 VH
VL: DIVMTQSPSSVSASVGDRVTITCRASQDINNWLAWYQQKAGKAPKLLIYVATKLQNGVPSRFSGSGSGTDFTLSISNLQPEDFATYYCQQAKSFPYTFGQGTKLEIK
notes: Fully human IgG
Cell killing, 2-hours-wash method (IC50, nM); antibody pre-complexed with Protein G-MMAF, LNCaP cells, Cell Titer Glo [1]: 2.24 nM | Cell killing, No wash method (IC50, nM); antibody pre-complexed with Protein G-MMAF, LNCaP cells, Cell Titer Glo [1]: 0.12 nM | EC50 [2]: 3.15 nM

B7: anti-PSMA antibody PSGC12 (antibody, V domains shown)
VH: B1 VH
VL: DIVMTQSPSSVSASVGDRVTITCRASQDVGTWLAWYQQKPGRAPKLLIYVASSLQSGVPSRFSGSGSGTDFTLTISSLQPEDSATYYCQQAKGIPYTFGQGTKLEIK
notes: Fully human IgG
EC50 [2]: 2.84 nM

B8: anti-PSMA antibody PSGB12 (antibody, V domains shown)
VH: B1 VH
VL: DVVMTQSPSTLSASVGDRVTITCRASQSISSWLAWYQQKPGKAPKLLIFAASSLQSGVPSRFSGSGSGTDFALTISSLQPEDFATYYCQESYSIPWTFGQGTKVEIK
notes: Fully human IgG
Cell killing, 2-hours-wash method (IC50, nM); antibody pre-complexed with Protein G-MMAF, LNCaP cells, Cell Titer Glo [1]: 1.66 nM | Cell killing, No wash method (IC50, nM); antibody pre-complexed with Protein G-MMAF, LNCaP cells, Cell Titer Glo [1]: 0.05 nM | EC50 [2]: 3.46 nM

B11: anti-PSMA antibody PSGH3 (antibody, V domains shown)
VH: B1 VH
VL: B1 VL with A28G, S31N, A50V, Y92N, V96I, P100Q, K103R, V104L, D105E
notes: Fully human IgG
Cell killing, 2-hours-wash method (IC50, nM); antibody pre-complexed with Protein G-MMAF, LNCaP cells, Cell Titer Glo [1]: 1.51 nM | Cell killing, No wash method (IC50, nM); antibody pre-complexed with Protein G-MMAF, LNCaP cells, Cell Titer Glo [1]: 0.06 nM | EC50 [2]: 3.72 nM

B14: anti-PSMA antibody PSA11 (antibody, V domains shown)
VH: B1 VH
VL: B1 VL with D1V, V3W, A28G, S53N, Y92N, V96L, P100G
notes: Fully human IgG (detected with anti-human IgG, gamma-chain specific)
Cell killing, 2-hours-wash method (IC50, nM); antibody pre-complexed with Protein G-MMAF, LNCaP cells, Cell Titer Glo [1]: 1.55 nM | Cell killing, No wash method (IC50, nM); antibody pre-complexed with Protein G-MMAF, LNCaP cells, Cell Titer Glo [1]: 0.08 nM | EC50 [2]: 2.4 nM | Kd [6]: ~0.67 nM | Kd [7]: 0.681 nM | kon [7]: 88100 M⁻¹ s⁻¹ | koff [8]: 6e-05 s⁻¹

More lines, in order of falling EC50 [2], values ahead:

EC50 [2]: 2.13 nM
B12: anti-PSMA antibody PSGH8 (antibody, V domains shown)
VH: B1 VH
VL: B1 VL with V11L, A28G, S76N, Y92S, S93G, V96F
notes: Fully human IgG

EC50 [2]: 2.08 nM
B10: anti-PSMA antibody PSGF9 (antibody, V domains shown)
VH: B1 VH
VL: B1 VL with D1A, V3Q, A28G, F83I, Q90E, A91S, F94T, V96F
notes: Fully human IgG
Cell killing, 2-hours-wash method (IC50, nM); antibody pre-complexed with Protein G-MMAF, LNCaP cells, Cell Titer Glo [1]: 1.33 nM | Cell killing, No wash method (IC50, nM); antibody pre-complexed with Protein G-MMAF, LNCaP cells, Cell Titer Glo [1]: 0.13 nM

EC50 [2]: 2.05 nM
B6: anti-PSMA antibody PSGC9 (antibody, V domains shown)
VH: B1 VH
VL: AIRMTQSPSTLSASVGDRVTITCRASQNIYGWLAWYQQKPGKAPELLIYAASSLQSGVPSRFSGSGSGTDFTLTINSLQPEDFATYYCQQSYTIPFTFGPGTKVDIK
notes: Fully human IgG
Cell killing, 2-hours-wash method (IC50, nM); antibody pre-complexed with Protein G-MMAF, LNCaP cells, Cell Titer Glo [1]: 1.22 nM | Cell killing, No wash method (IC50, nM); antibody pre-complexed with Protein G-MMAF, LNCaP cells, Cell Titer Glo [1]: 0.06 nM

EC50 [2]: 1.92 nM
B13: anti-PSMA antibody PSGE10 (antibody, V domains shown)
VH: B1 VH
VL: DVVMTQSPSSVSASVGDRVTITCRASQGISSWLAWYQQKPGKAPKLLIYAASTLQSGVPSRFSGSGSGTDFTLTINNLQPEDFATYYCQQTASFPINFGGGTKVEIK
notes: Fully human IgG
Cell killing, 2-hours-wash method (IC50, nM); antibody pre-complexed with Protein G-MMAF, LNCaP cells, Cell Titer Glo [1]: 1.58 nM | Cell killing, No wash method (IC50, nM); antibody pre-complexed with Protein G-MMAF, LNCaP cells, Cell Titer Glo [1]: 0.08 nM

EC50 [2]: 1.59 nM
B9: anti-PSMA antibody PSGD4 (antibody, V domains shown)
VH: B1 VH
VL: B1 VL with V11L, T20S, A28G, S31T, K45D, S53N, Y92N, V96L, P100G, D105E
notes: Fully human IgG
Cell killing, 2-hours-wash method (IC50, nM); antibody pre-complexed with Protein G-MMAF, LNCaP cells, Cell Titer Glo [1]: 2.09 nM | Cell killing, No wash method (IC50, nM); antibody pre-complexed with Protein G-MMAF, LNCaP cells, Cell Titer Glo [1]: 0.06 nM

EC50 [2]: 1.3 nM
B2: anti-PSMA antibody PSGG6 (antibody, V domains shown)
VH: B1 VH
VL: EIVLTQSPSSLSASVGDRVTITCRASQGISSYLAWYQQKPGKAPKLLIYAASTLQSGVPSRFSGSGSGTDFTLTISSLQPEDFATYYCQQLNSYPRGITFGQGTKLEIK
notes: Fully human IgG
